Assay results as given in PMC7518097.

Molecular target: Kv7.2 G279S (human)
Assay: co-IP; lysates of transfected cells incubated with protein A magnetic beads pre-coated with guinea pig anti-KCNQ2-C2 antibodies; CaM detected by western blot (mouse anti-calmodulin); CaM band normalized to WT

“calmodulin (from UniProt P0DP23 1-149) (natural protein)” showed a CaM co-immunoprecipitated, normalized to WT (relative to WT) of 0.71.
